Assay results published in the supplement of paper PMC10567573.

B1: TRAF3IP2 (parent)
chain: KEHVPTWLQNTHVYSWPKNKKNIL

Variants of: B1
Assay: protein stability index of a GFP-peptide fusion (GPS, HEK-293T) (PSI 1-6); higher = more stable
Conditions: c terminus: a fixed tail appended
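Further: lentivirally expressed fusions sorted by FACS into six bins by GFP to DsRed ratio, PSI derived from sequencing read proportions per bin multiplied by bin number.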

Variant | protein stability index
N10K | 2.04
N10T | 2.85
N10A | 2.34
N10E | 2.66
N10P | 2.64
N10F | 2.09
N10Y | 2.6
N10C | 2.07
N10I | 1.79
N10Q | 2.32
N10R | 2.09
N10L | 2.03
N10D | 3.02
N10W | 1.64
N10G | 2.07
N10M | 2.25
N10V | 2.85
N10S | 2.66
N10H | 2.48
T11Y | 2.36
T11I | 2.55
T11Q | 3.04
T11S | 2.88
T11E | 2.83

Variant | protein stability index
T11W | 2.3
T11N | 3.08
T11R | 2.54
T11D | 2.52
T11F | 2.53
T11K | 2.57
T11H | 2.38
T11A | 2.67
T11M | 2.91
T11G | 2.64
T11P | 2.67
T11V | 2.52
T11C | 2.28
T11L | 2.44
L8A | 3.33
L8N | 3.2
L8S | 3.01
L8F | 2.2
L8M | 3.34
L8T | 3.45
L8H | 2.76
L8Y | 2.73
L8I | 2.54
L8C | 3.02

Variant | protein stability index
L8K | 2.98
L8P | 3.18
L8V | 2.04
L8W | 2.63
L8Q | 3.08
L8E | 3.88
L8G | 3.21
L8R | 2.98
L8D | 3.17
Y14I | 3.71
Y14V | 2.69
Y14D | 3
Y14M | 2.76
Y14E | 3.14
Y14F | 2.05
Y14Q | 3.06
Y14C | 2.63
Y14N | 3.24
Y14L | 2.29
Y14H | 3.46
Y14G | 3.05
Y14K | 2.49
Y14T | 3
Y14A | 3.14

Variant | protein stability index
Y14P | 2.98
Y14W | 1.98
Y14R | 2.73
Y14S | 3.4
H12R | 3.02
H12W | 1.82
H12K | 2.51
H12V | 2.05
H12L | 1.79
H12G | 2.8
H12P | 2.94
H12Y | 2.6
H12N | 2.62
H12M | 2.42
H12T | 2.82
H12C | 2.46
H12E | 3.38
H12D | 2.75
H12I | 2.17
H12F | 2.13
H12Q | 2.55
H12A | 2.86
H12S | 3.17
S15D | 2.89

Variant | protein stability index
S15E | 2.6
S15H | 2.27
S15C | 2.15
S15A | 3.19
S15G | 2.99
S15F | 1.97
T6M | 2.22
T6V | 2.17
T6Y | 2.32
T6L | 2.58
T6N | 3.38
T6R | 2.23
T6P | 3.07
T6S | 2.88
T6W | 1.53
T6Q | 2.51
W7K | 3.34
W7N | 3.63
W7F | 2.82
W7C | 3.75
W7Y | 2.88
W7G | 3.99
W7E | 3.97
W7Q | 3.74

Variant | protein stability index
W7D | 3.07
W7S | 3.31
W7A | 3.39
W7M | 3.61
W7P | 3.21
W7L | 3.2
W7I | 2.61
W7T | 3.84
W7H | 3.21
W7V | 3.82
W7R | 2.85
V13M | 2.88
V13E | 2.52
V13F | 2.65
V13A | 2.5
V13H | 3.78
V13Y | 2.62
V13Q | 2.31
V13S | 2.75
V13C | 2.49
V13T | 2.66
V13D | 3.88
V13W | 2.46
V13R | 3

Variant | protein stability index
V13P | 3.07
V13L | 2.44
V13I | 2.51
V13N | 2.11
V13K | 3.2
Q9M | 2.53
Q9E | 2.68
Q9S | 2.62
Q9D | 2.53
Q9V | 2.65
Q9P | 2.81
Q9F | 2.38
Q9C | 2.25
Q9Y | 2.39
Q9L | 2.29
Q9A | 2.18
Q9K | 1.87
Q9H | 2.54
Q9R | 1.97
Q9I | 2.55
Q9G | 2.66
Q9T | 2.8
Q9N | 3.18
